Source: publication PMC13039401

Biological target: MdtJ-His6 (Lawsonia intracellularis MdtJ, orphan, Cys-less)
Assay: size exclusion chromatography with densitometry of blot fractions
Details: parent: est. 36; read off a plot

In the case of “FtsH-His6 (E. coli FtsH, wild type) (from UniProt P0AAI3) S2K; K6A; N7L; Q23L”, the response is reported as 11%.
